Experimental data: US20240398942A1, “USE OF ANTI-CD40 ANTIBODY” (CHIA TAI TIANQING PHARMACEUTICAL GROUP CO., LTD., priority 2021, published 2024)
Read-outs that look alike come from different tables or passages of the source.

B1: huC1H1-V1: humanized C1H1 anti-CD40 antibody, VH SEQ ID NO: 20 X1=A, VL SEQ ID NO: 24 X1=K X2=F, human IgG2/κ (antibody, V domains shown)
VH: EVQLVESGGGLVKPGGSLRLSCAASGFTFSNYGISWVRQAPGKGLEWVXSISSGGDNTYYPDNVKGRFTISRDNAKNSLYLQMNSLRAEDTAVYYCARAGEKAMDYWGQGTLVTVSS
VL: EIVLTQSPATLSLSPGERATLSCRASQTINNNLHWYQQKPGQAPRLLIXYASQSISGIPARFSGSGSGTDFTLTISSLEPEDFAVYXCQQFSSWPLTFGGGTKVEIK
modifications: not fully specified; human IgG2/kappa constant regions; VH of huC1H1-V1 to huC1H1-V4; VARIANT 49 X can be A or S; VL of huC1H1-V1 to huC1H1-V4; VARIANT 49 X can be K or Y; VARIANT 87 X can be F or Y
B2: huC1H1-V2: humanized C1H1 anti-CD40 antibody, VH SEQ ID NO: 20 X1=S, VL SEQ ID NO: 24 X1=K X2=F, human IgG2/κ (antibody, V domains shown)
VH: B1 VH
VL: B1 VL
modifications: not fully specified; variable positions X1=S; VL X1=K X2=F; IgG2/kappa constant; VH of huC1H1-V1 to huC1H1-V4; VARIANT 49 X can be A or S; VL of huC1H1-V1 to huC1H1-V4; VARIANT 49 X can be K or Y; VARIANT 87 X can be F or Y

Tests used:
[1] = molecular target: binding of the benchmark (BM2) to human CD40 (Homo sapiens, UniProt P25942); assay: Benchmark blocking competitive ELISA; details: in words, FIG. 6
Chain of binding of the benchmark (BM2) to human CD40 (P25942 21-193): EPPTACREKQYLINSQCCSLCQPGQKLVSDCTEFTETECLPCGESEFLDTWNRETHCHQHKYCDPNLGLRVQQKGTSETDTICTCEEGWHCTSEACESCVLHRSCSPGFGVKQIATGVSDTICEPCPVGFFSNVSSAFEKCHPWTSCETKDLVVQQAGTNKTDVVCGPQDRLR
Description: The ability of the anti-CD40 antibody of the present application to block the binding of the benchmark to human CD40 was determined by competitive ELISA. Briefly, BM2 antibody was immobilized on a 96-well micro plates at 1 μg/mL in PBS, 100 µL/well, and incubated overnight at 4° C. The next day, the plate was washed once with a washing buffer before a blocking buffer (PBST containing 5% w/v of skim milk) was added. The plate was then incubated at 37° C. for 2 h for blocking. During the blocking of the 96-well plate, the anti-CD40 antibody of the present application or the benchmark was serially 5-fold diluted from 66.7 nM with a biotinylated human CD40-Fc protein (amino acid residues 21-193 of SEQ ID NO: 30 linked to the N terminus of amino acid residues 99-330 of SEQ ID NO: 28, dissolved in PBST containing 2.5% w/v of skim milk at a concentration of 0.23 nM) and then incubated at room temperature for 40 min. After the plate was washed 4 times, the antibody/biotinylated human CD40-Fc mixture was added at 100 μL/well to the plate coated with BM2. The plate was incubated at 37° C. for 40 min and again washed 4 times with the washing buffer. […] The absorbance was read on a microplate reader using the dual wavelength mode (TMB detection wavelength: 450 nm, reference wavelength: 630 nm). […] Data were analyzed using Graphpad Prism software, and IC50 values were obtained.

Human CD40-his = molecular target: T1, Human CD40-his (Homo sapiens, UniProt P25942); assay: Biacore surface plasmon resonance affinity and binding kinetics; details: Table 5, Biacore; for Ka: purified antibodies
T1 construct: His; purchased Acro biosystems CD0-H5228
T1 sequence (P25942 21-277): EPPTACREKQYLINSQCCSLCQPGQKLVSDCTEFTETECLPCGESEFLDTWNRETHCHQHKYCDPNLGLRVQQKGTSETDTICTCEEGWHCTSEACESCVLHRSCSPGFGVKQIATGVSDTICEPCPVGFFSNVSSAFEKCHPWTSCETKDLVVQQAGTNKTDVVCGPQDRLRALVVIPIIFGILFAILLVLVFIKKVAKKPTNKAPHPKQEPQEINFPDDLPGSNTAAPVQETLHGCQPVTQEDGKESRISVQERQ
Excerpt: (§1) The affinity and binding kinetics of the anti-CD40 antibody in the present application were characterized by a Biacore T200 system (GE Healthcare, Pittsburgh, PA, USA).
(§2) Briefly, a goat anti-human IgG (GE Healthcare, Cat. No. BR100839, human antibody capture kit) was covalently linked to a CM5 chip (GE Healthcare, Cat. No. BR100530, carboxymethylated dextran-coated chip) via the primary amine group using a standard amine coupling kit supplied by Biacore (GE Healthcare, Pittsburgh, PA, USA). Unreacted portions on the biosensor surface were blocked with ethanolamine. Then, the anti-CD40 antibody of the present application and two benchmark antibodies (BM1 (dacetuzumab, Genentech Inc., also referred to CD40-BM1, prepared in-house; the heavy and light chain amino acid sequences are set forth in SEQ ID NOs: 40 and 41, respectively) and BM2 (selicrelumab, Abgenix Inc., also referred to CD40-BM2, prepared in-house; the heavy and light chain amino acid sequences are set forth in SEQ ID NOS: 42 and 43, respectively)) at a concentration of 66.67 nM were directed through the chip at a flow rate of 10 μL/min. Then, serially diluted recombinant human CD40-his (Acro biosystems, Cat. No. CD0-H5228, serially 2-fold diluted from 80 nM in HBS-EP^+ buffer (supplied by Biacore)) or cynomolgus monkey CD40-his protein (Acro biosystems, Cat. No. CD0-C52H6, serially 2-fold diluted from 80 nM in HBS-EP^+ buffer (supplied by Biacore)) was directed through the chip at a flow rate of 30 μL/min. The antigen-antibody binding kinetics was tracked for 2 min and the dissociation kinetics was tracked for 10 min. The association and dissociation curves were fitted to a 1:1 Langmuir binding model using BIAcore evaluation software. KD, Ka, and Kd values were determined.

[2] = molecular target: Cynomolgus monkey CD40-his; assay: as above; details: Table 5, Biacore; for Ka: purified antibodies
Excerpt: as §1, §2

binding of CD40 to CD40L = binding of CD40 to CD40L (Homo sapiens, UniProt P25942); assay: Ligand blocking competitive ELISA; details: in words, FIG. 5
Chain of binding of CD40 to CD40L (P25942 21-193): as the sequence (P25942 21-193) above
Description: The ability of the anti-CD40 antibody to block the binding of CD40 to CD40L was determined by competitive ELISA. Briefly, a human CD40-Fc protein (amino acid residues 21-193 of SEQ ID NO: 30 linked to the N terminus of amino acid residues 99-330 of SEQ ID NO: 28) dissolved in the immobilization buffer (carbonate/bicarbonate buffer) at a concentration of 2 μg/mL was immobilized on a 96-well plate at 100 μL/well and incubated overnight at 4° C. The next day, the plate was washed once with a washing buffer (PBS+0.05% v/v of Tween-20, PBST) before a PBST containing 5% w/v of skim milk was added. The plate was then incubated at 37° C. for 2 h for blocking. The plate was then washed 4 times with the washing buffer.
The anti-CD40 antibody of the present application or the benchmark was serially 5-fold diluted from 200 nM in a PBST containing 2.5% w/v of skim milk, and the serially diluted anti-CD40 antibody or benchmark was added at 100 μL/well to a plate coated with CD40-Fc protein and incubated at 37° C. for 40 min. […] The absorbance of each well was read on a microplate reader using the dual wavelength mode (TMB detection wavelength: 450 nm, reference wavelength: 630 nm). […] Data were analyzed using Graphpad Prism software, and IC50 values were obtained.

Molecule	Blocking of the binding of human CD40 to BM2 [1]	Kd (Human CD40-his; dissociation rate)	Ka (Human CD40-his)	Kd (Human CD40-his; read-out: KD)	Kd ([2]; dissociation rate)	Ka [2]	Kd ([2]; read-out: KD)	Blocking of the binding of CD40 to CD40L (binding of CD40 to CD40L)
B1	able to block the binding of human CD40 to BM2	0.00248 s⁻¹	2.25e+06 M⁻¹ s⁻¹	1.1 nM	0.002371 s⁻¹	2.14e+06 M⁻¹ s⁻¹	1.11 nM	comparable or slightly lower blocking activity relative to BM1 and BM2
B2	able to block the binding of human CD40 to BM2	0.002704 s⁻¹	2.31e+06 M⁻¹ s⁻¹	1.17 nM	0.002735 s⁻¹	2.56e+06 M⁻¹ s⁻¹	1.07 nM	comparable or slightly lower blocking activity relative to BM1 and BM2
